Laboratory results reported in publication PMC6447540.

Biological target: SAV1 (UniProt Q9H4B6)
Experiment: biotin-peptide pull-down from cell lysate
Settings: reference: unphosphorylated Akt1 peptide; sites Y26

“Akt1 PH domain peptide (from UniProt P31749) pY26 Akt1 peptide” was tested, and the “binding against the reference” value was “weaker”.
